# B1: OR4K15 (parent)
# chain: GUUAACGGUCAUAGGCCAUGGAAACUAGGAGCACCAUUUCGCUGCCAGUGAAGAAAUGAACAAAGAAAAUCUGGGCCAGGCAGGCAUCAAAAGAAAUAGUCUUGCGCUCAACCAGAAAGUCUGUAAUCAUUUUAAGGGUA
# Variants of: B1
# Test: self-cleavage, relative activity (ratio to wild type); higher = more cleavage; in vitro, sequencing; the parent is a self-cleaving ribozyme
row,Variant,self-cleavage
1,A69G A129G,0.87
2,A51G U127C,1.04
3,A68U U72A,0.34
4,G75C A129G,0.07
5,G99A G136A,0.91
6,U19C A117U,0.58
7,U2C A118U,0.44
8,A67U U97C,1.43
9,U43C G93A,2.44
10,U37G A60G,1.48
11,A5C U108A,0.07
12,U102C A129U,1.23
13,U70C G75A,0.21
14,A13G U133C,1.84
15,U49G A114G,0.06
16,A55G U103C,1.06
17,A18G C61U,1.18
18,A47G U102C,1.25
19,U39A U100C,2.25
20,U19C A92G,1.53
21,A13G A54U,0.74
22,U38A U108C,0.01
23,C76A A90G,0.14
24,A56C,1.33

row,Variant,self-cleavage
1,U2A U72C,0.48
2,A51C U57G,1.26
3,A90G A91G,0.55
4,A11C A118U,0.72
5,G15C A68C,2.44
6,A64G U133C,1.5
7,A23G A111U,0.23
8,A59G A96U,0.71
9,U2A U131C,0.69
10,U9A U103C,0.49
11,A59U U70C,0.53
12,A59G A62U,1.32
13,A63U A118U,1.02
14,A55G C109U,0.82
15,C16G A78U,0.66
16,A22G U132G,1.75
17,A67U U72C,0.31
18,A116U U122C,0.21
19,A33U A51U,0.89
20,G65A U130C,0.71
21,A82G U139C,0.39
22,A24G A135U,1.33
23,A94G U108C,0.01
24,A23G G80U,0.23

row,Variant,self-cleavage
1,G28A A68G,2.39
2,A30C U108C,0
3,A22G C76U,0.19
4,A47U A90G,0.72
5,U3A A118G,0.9
6,A52G U139C,2.03
7,U72C G106A,0.02
8,A117U U133C,1.23
9,U39C A114U,0.1
10,A64G A89C,0.64
11,A36C U132C,1.67
12,A92G A110C,0.26
13,A36G U57G,0.68
14,A64G A134U,1.07
15,A27G G48U,0.5
16,A24U A54G,1.46
17,U39C A55U,2.15
18,G74A C76U,0.11
19,A13U A89G,1.51
20,A30G U38A,0.72
21,A11U U57C,0.73
22,A51G A89G,0.95
23,A24G U49G,0.9
24,A67G A68U,1.13

row,Variant,self-cleavage
1,U2A A69G,1.62
2,A23G G50A,1.9
3,A22G C81U,0.53
4,A64U A91G,1.04
5,A59G C121A,2.81
6,A24G A140G,1.4
7,A23U U87A,1.36
8,A82C C105U,0.02
9,A5G A36U,1.13
10,U39A A66U,1.74
11,U39C A47G,1.25
12,U108C U132C,0.01
13,A23U A129U,0.79
14,C32A A63G,1.46
15,A30G C34A,0.85
16,A78U A110G,0.05
17,A52G C71G,0.39
18,A91U G138A,0.82
19,A59U A96C,0.81
20,C10U U132C,1.26
21,A27U U102C,2.12
22,C105U U120C,0.05
23,U124G A125G,0.6
24,U9A A91G,0.37

row,Variant,self-cleavage
1,G58A A111G,0
2,A64G A135G,1.7
3,G31A A52U,1.32
4,A94G A110G,0.13
5,U9A A59G,1.12
6,U49A A69U,1.92
7,A114G A118C,0.11
8,A116G U139C,1.17
9,A59C U100C,1.22
10,A96G A129G,1.11
11,C17U A91G,0.42
12,U43C A69G,0.94
13,A69G A94U,1.45
14,U3A U130C,1.09
15,G14U A22G,1.12
16,A18C C71U,0.35
17,G41A A52G,1.07
18,A18G U70C,0.57
19,A52C A54G,1.34
20,U102C A111U,0.04
21,A47G A98G,0.3
22,A64U A98U,1.98
23,U57A A125U,1.1
24,U102C A125G,1.5

row,Variant,self-cleavage
1,U87C A95G,1.35
2,G53A A118C,0.99
3,A110G A114G,0.05
4,A78U A126G,0.17
5,A33G U130C,0.66
6,U124A U133G,0.43
7,A47G A68G,1.23
8,A82U A135U,0.12
9,U102A U108C,0
10,G73A A92G,0.2
11,A24G G74A,0.31
12,G79A A140G,0.13
13,A47U U97A,1.74
14,C88A A94G,1.5
15,A54U U102C,1.59
16,G7A A92U,1.72
17,A55U U139C,0.56
18,U39C A62G,0.75
19,A33U A129G,1.03
20,A30G C105U,0.17
21,U2C A90G,0.54
22,A69G U70A,1.26
23,A95U G104A,0.05
24,A90G A134G,1.35

row,Variant,self-cleavage
1,U122C U139A,1.1
2,A62U U87C,1.57
3,A98U U120C,1.65
4,A54G U100A,0.57
5,A52U U131A,1.49
6,A78G U132C,0.12
7,U108C U139A,0.04
8,A64G C85U,0.98
9,A11G U124A,0.66
10,C109A A118C,0.14
11,U19G A67G,1.1
12,A67G A116U,0.14
13,A51G C61G,0.99
14,A52G U130G,0.81
15,C42U,1.44
16,A68U C113A,0.01
17,A23G U127C,0.79
18,U43C C107U,0.02
19,C6G U132C,0.79
20,U49G A60G,0.64
21,U100C A135G,1.74
22,A55G A95C,1.02
23,A55G A64U,2.41

# Reference: the RNAGym collection of RNA variant scans (doi:10.7554/elife.90254)
